The text below walks through data of patent US20240279288A1, “APPLICATION OF PLANT JAZ PROTEINS AND DERIVED POLYPEPTIDES IN PREVENTION AND TREATMENT OF HUMAN AND ANIMAL TUMORS” (ANYANG INSTITUTE OF SINO-COTTON INDUSTRY INNOVATION, priority 2021, published 2024).

For one test, the system named is GhNINJA. Kind of test: Luciferase experiment in tobacco leaves with GhNINJA. In kind it is binding, cotton. The following applies: no fluorescence on the control. An excerpt:
Method of the luciferase experiment: GhJAZ1 (corresponding encoding gene sequence set forth in SEQ ID No. 39) was subcloned into pCAMBIA-CLuc vector (Chen, H., et al. “Firefly Luciferase Complementation Imaging Assay for Protein-Protein Interactions in Plants.” Plant Physiology 146.2(2008):368-376.) between KpnI and SalI cleavage sites, and the transcription factors such as GhMYC2 (corresponding encoding gene sequence set forth in SEQ ID No. 72), GhNINJA (corresponding encoding gene sequence set forth in SEQ ID No. 74), and GhCOI1 (corresponding encoding gene sequence set forth in SEQ ID No. 80) were subcloned into pCAMBIA-NLuc (Chen, H., et al. “Firefly Luciferase Complementation Imaging Assay for Protein-Protein Interactions in Plants.” Plant Physiology 146.2(2008):368-376.) between KpnI and SalI cleavage sites, respectively. […] Luciferase substrates were applied at the infected leaves before taking images and placed in a dark room for at least 6 min to quench fluorescence, followed by observation on the Nightowl-II LB983 instrument, using IndigoBasic software under the luciferase-5 min setting conditions.

A further test has as its target T1, ATF domain of uPA (Homo sapiens, UniProt P00749).
T1 construct: expressed in transfected cells
Put plainly: Yeast two hybrid with ATF domain of uPA. Format: binding. An excerpt: […]
In order to explore how GhJAZ1 enters cancer cells, we cloned the genes of most tumor surface receptors, including uPAR (NCBI database accession number of NM_002659.4), CCK1R (NP_000721.1), CCK2R (NP_001350481.1), HER2 (NP_004439.2), GRPR (NP_005305.1), MUC1 (NP_001358649.1), VEGFR1 (NP_002010.2), Insulin receptor (NM_000208.4), NTR (XM_011528827.2), PSMA (XM_017017432.1), TFR1 (NM_001128148.3), TFR2 (NM_003227.4), PEPT1 (NM_005073.4), APN (NM_001150.3). […] We detected the interaction of GhJAZ1 with uPA (as the ligand of uPAR, NCBI database accession number of NP_002649.2) and uPAR by yeast two hybrid (the steps of the experiment as Example 3). […]

Sequence of GhNINJA (as listed by the source): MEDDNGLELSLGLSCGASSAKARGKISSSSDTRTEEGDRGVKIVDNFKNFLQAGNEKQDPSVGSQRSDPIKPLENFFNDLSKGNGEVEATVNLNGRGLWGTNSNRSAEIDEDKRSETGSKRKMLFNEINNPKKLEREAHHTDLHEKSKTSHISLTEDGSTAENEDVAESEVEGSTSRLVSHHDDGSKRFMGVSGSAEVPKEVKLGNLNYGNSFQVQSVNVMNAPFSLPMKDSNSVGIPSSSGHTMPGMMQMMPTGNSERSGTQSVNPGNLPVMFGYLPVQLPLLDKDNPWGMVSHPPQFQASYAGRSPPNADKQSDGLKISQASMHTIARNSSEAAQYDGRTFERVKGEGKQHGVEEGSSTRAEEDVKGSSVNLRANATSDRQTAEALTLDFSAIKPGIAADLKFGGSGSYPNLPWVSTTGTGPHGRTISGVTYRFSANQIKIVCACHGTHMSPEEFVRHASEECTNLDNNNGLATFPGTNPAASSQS

B1: GhJAZ1: cotton JAZ1 protein, gene number Gh_A05G0260, sequence SEQ ID No. 4; prokaryotically expressed with His tag, about 30 KD (protein)
chain: MSSCSESTAMKPARSPEKPSFAQTCNLLSQYLKEKGSFGDLSLGMTCNVEANGTPVVPPPTMNLFPLNDKSDDVCGRNGGNPKNLTSMDLFPQQAGLASKDDSPNKLEPQTAPMTIFYGGQVIVFNDFPANKAKEIMLLASNSSSQSNNSFNPIPFTSSIARSPIESSIGVPPTSKPVHPAQRAVPGDLPIARRASLHRFLEKRKDRITAKAPYQINNSAAAPSLSGDNKSWLGLAAQSP
modifications: His tag
notes: prokaryotically expressed with His tag, about 30 KD
On to B1, for which, in the test with GhNINJA, the “fluorescence with GhNINJA after applying luciferase substrate” value was “stronger fluorescence”. Further, the “interaction with the ATF domain of uPA” value with ATF domain of uPA is “interacts”.
